Results reported in patent US20240209062A1 (INVETX, published 2024).
Substitutions are numbered along the chain they refer to. Names may count otherwise. Blank lines part the entries; values can stand above or below the binder they belong to.

Molecular target: T1, feline FcRn (soluble portion of large subunit p51 isoform X1 with C-terminal 6xHis-tag, co-expressed with … (feline, UniProt Q5MGS7 21-118))
T1 construct: Heterodimer made by co-expression in CHO cells, purified on HisTrap FF; also called FcRn complex
T1 sequence (chain, as listed by the source limits assumed, chain 1 of 2): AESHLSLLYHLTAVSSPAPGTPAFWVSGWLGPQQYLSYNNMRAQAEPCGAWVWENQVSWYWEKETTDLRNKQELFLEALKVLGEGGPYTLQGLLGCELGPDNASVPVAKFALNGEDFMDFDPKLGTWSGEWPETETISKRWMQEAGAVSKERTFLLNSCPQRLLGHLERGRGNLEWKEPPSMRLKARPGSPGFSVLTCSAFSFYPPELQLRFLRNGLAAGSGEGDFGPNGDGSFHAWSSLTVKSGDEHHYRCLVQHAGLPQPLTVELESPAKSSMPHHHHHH
T1 sequence (Q5MGS7 other isoform, or with tags, fused parts or gaps limits assumed, chain 2 of 2): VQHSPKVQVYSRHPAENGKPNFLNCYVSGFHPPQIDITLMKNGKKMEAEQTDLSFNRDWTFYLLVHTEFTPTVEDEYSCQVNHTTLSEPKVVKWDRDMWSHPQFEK
Assay: SPR, Biacore T200, IgG captured on Protein L chip, feline FcRn flowed over, pH 5.9, 1:1 fit
Description: The feline FcRn binding experiments at pH 5.9 were completed on a BIACORE™ T200 instrument. A Series S Protein L Sensor chip (Cytiva, Cat. No. BR29205137) was used to capture the antibody variants via the kappa (κ) light chain. The feline variants were captured onto the protein L chip at a flow rate of 10 μL/min for 60 seconds. 1×PBX-P+(Cytiva Cat 28995084) was adjusted to pH 5.9 for the running buffer. The feline FcRn was flowed over the sensor chip at 30 μL/min for 120 seconds contact time and 600 seconds dissociation time. Regeneration of the flow cells was completed by flowing over 10 mM glycine, pH 1.7 at 30 μL/min for 30 seconds. The data were evaluated by the BIACORE™T200 Evaluation software v3.2.1 by fitting to a 1:1 kinetic interaction model.

B1: IgG with feline IgG1a Fc variant S252M, R301V (antibody)
heavy: DVQLVESGGDLVKPGGSLRLTCVASGLSLTSDSMSWVRQAPGKGLQWVSTLWSNRGTYYTDSVKGRFTISKDNAENTLYLQMNNLKTEDTATYYCASIYYYEADYLHWYFDFWGQGALVTVSSASTTAPSVFPLAPSCGTTSGATVALACLVLGYFPEPVTVSWNSGALTSGVHTFPAVLQASGLYSLSSMVTVPSSRWLSDTFTCNVAHPPSNTKVDKTVRKTDHPPGPKPCDCPKCPPPEAAGGPSIFIFPPKPKDTLMISRTPEVTCLVVDLGPDDSDVQITWFVDNTQVYTAKTSPREEQFNSTYVVVSVLPILHQDWLKGKEFKCKVNSKSLPSPIERTISKAKGQPHEPQVYVLPPAQEELSRNKVSVTCLIKSFHPPDIAVEWEITGQPEPENNYRTTPPQLDSDGTYFVYSKLSVDRSHWQRGNTYTCSVSHEALHSHHTQKSLTQSPG
light: EIQMTQSPTSLSASVGDRVTITCRASEGIANNLSWYQQTPGKAPKLLIYATSNLHSGVPSRFSGSGSGTDFTLTISSLQPEDFATYYCQQGFKWPLTFGGGTKLEITRSDAQPSVFLFQPSLDELHTGSASIVCILNDFYPKEVNVKWKVDGVVQNKGIQESTTEQNSKDSTYSLSSTLTMSSTEYQSHEKFSCEVTHKSLASTLVKSFNRSECQRE
notes: IgG1a constant domain with MALA mutations (M234A, L244A as printed); variable domains from WO 2023/97275
- Kd: 278 nM
- koff: 0.206 s⁻¹
- kon: 745000 M⁻¹ s⁻¹

B2: IgG with feline IgG1a Fc variant S252M, R392E (antibody)
heavy: B1 heavy with V310R, R403E
light: B1 light
notes: as for B1
- Kd: 186 nM
- koff: 0.177 s⁻¹
- kon: 965000 M⁻¹ s⁻¹

B3: IgG with feline IgG1a Fc variant S252M, T286E (antibody)
heavy: B1 heavy with T295E, V310R
light: B1 light
notes: as for B1
- Kd: 101 nM
- koff: 0.0719 s⁻¹
- kon: 715000 M⁻¹ s⁻¹

B4: IgG with feline IgG1a Fc variant S252M, R392D (antibody)
heavy: B1 heavy with V310R, R403D
light: B1 light
notes: as for B1
- Kd: 268 nM
- koff: 0.229 s⁻¹
- kon: 856000 M⁻¹ s⁻¹

B6: IgG with feline IgG1a Fc variant S252Y, R301V (antibody)
heavy: B1 heavy with M261Y
light: B1 light
notes: as for B1
- Kd: 38.7 nM
- koff: 0.028 s⁻¹
- kon: 724000 M⁻¹ s⁻¹

B8: IgG with feline IgG1a Fc variant S428L, R301L (antibody)
heavy: B1 heavy with M261S, V310L, S439L
light: B1 light
notes: as for B1
- Kd: 115 nM
- koff: 0.116 s⁻¹
- kon: 1.01e+06 M⁻¹ s⁻¹

B10: IgG with feline IgG1a Fc variant S428L, R392D (antibody)
heavy: B1 heavy with M261S, V310R, R403D, S439L
light: B1 light
notes: as for B1
- Kd: 104 nM
- koff: 0.0934 s⁻¹
- kon: 904000 M⁻¹ s⁻¹

B11: IgG with feline IgG1a Fc variant S428M (antibody)
heavy: B1 heavy with M261S, V310R, S439M
light: B1 light
notes: as for B1
- Kd: 70.1 nM
- koff: 0.0702 s⁻¹
- kon: 1.01e+06 M⁻¹ s⁻¹

B12: IgG with feline IgG1a Fc variant S428L, R301V (antibody)
heavy: B1 heavy with M261S, S439L
light: B1 light
notes: as for B1
- Kd: 109 nM
- koff: 0.0832 s⁻¹
- kon: 763000 M⁻¹ s⁻¹

B13: IgG with feline IgG1a Fc variant S428L (antibody)
heavy: B1 heavy with M261S, V310R, S439L
light: B1 light
notes: as for B1
- Kd: 64 nM
- koff: 0.0619 s⁻¹
- kon: 968000 M⁻¹ s⁻¹

B14: IgG with feline IgG1a Fc variant S252Y, R301L (antibody)
heavy: B1 heavy with M261Y, V310L
light: B1 light
notes: as for B1
- Kd: 38.8 nM
- koff: 0.0277 s⁻¹
- kon: 714000 M⁻¹ s⁻¹

B16: IgG with feline IgG1a Fc variant S252M, R301Y (antibody)
heavy: B1 heavy with V310Y
light: B1 light
notes: as for B1
- Kd: 258 nM
- koff: 0.18 s⁻¹
- kon: 695000 M⁻¹ s⁻¹

B18: IgG with feline IgG1a Fc variant S428L, R301Y (antibody)
heavy: B1 heavy with M261S, V310Y, S439L
light: B1 light
notes: as for B1
- Kd: 99.1 nM
- koff: 0.0706 s⁻¹
- kon: 712000 M⁻¹ s⁻¹

B21: IgG with feline IgG1a Fc variant S428L, L309D (antibody)
heavy: B1 heavy with M261S, V310R, L318D, S439L
light: B1 light
notes: as for B1
- Kd: 200 nM
- koff: 0.12 s⁻¹
- kon: 597000 M⁻¹ s⁻¹

B22: IgG with feline IgG1a Fc variant S428M, L309D (antibody)
heavy: B1 heavy with M261S, V310R, L318D, S439M
light: B1 light
notes: as for B1
- Kd: 177 nM
- koff: 0.104 s⁻¹
- kon: 592000 M⁻¹ s⁻¹

B23: IgG with feline IgG1a Fc variant S428L, I377Y (antibody)
heavy: B1 heavy with M261S, V310R, I386Y, S439L
light: B1 light
notes: Printed '1377Y' read as I377Y; IgG1a constant domain with MALA mutations (M234A, L244A as printed); variable domains from WO 2023/97275; also called S428L, 1377Y
- Kd: 107 nM
- koff: 0.117 s⁻¹
- kon: 1.09e+06 M⁻¹ s⁻¹

B24: IgG with feline IgG1a Fc variant S252Y, R301Y (antibody)
heavy: B1 heavy with M261Y, V310Y
light: B1 light
notes: as for B1
- Kd: 37.6 nM
- koff: 0.0262 s⁻¹
- kon: 696000 M⁻¹ s⁻¹

B26: IgG with feline IgG1a Fc variant S428L, I377L (antibody)
heavy: B1 heavy with M261S, V310R, I386L, S439L
light: B1 light
notes: Printed '1377L' read as I377L; IgG1a constant domain with MALA mutations (M234A, L244A as printed); variable domains from WO 2023/97275; also called S428L, 1377L
- Kd: 87.7 nM
- koff: 0.0723 s⁻¹
- kon: 819000 M⁻¹ s⁻¹

B27: IgG with feline IgG1a Fc variant S252Y, L309D (antibody)
heavy: B1 heavy with M261Y, V310R, L318D
light: B1 light
notes: as for B1
- Kd: 56.7 nM
- koff: 0.0284 s⁻¹
- kon: 502000 M⁻¹ s⁻¹

B28: IgG with feline IgG1a Fc variant S428L, R392E (antibody)
heavy: B1 heavy with M261S, V310R, R403E, S439L
light: B1 light
notes: as for B1
- Kd: 96.5 nM
- koff: 0.0772 s⁻¹
- kon: 801000 M⁻¹ s⁻¹

B30: IgG with feline IgG1a Fc variant S252M, T286D (antibody)
heavy: B1 heavy with T295D, V310R
light: B1 light
notes: as for B1
- Kd: 123 nM
- koff: 0.105 s⁻¹
- kon: 850000 M⁻¹ s⁻¹

B31: IgG with feline IgG1a Fc variant S428M, I377L (antibody)
heavy: B1 heavy with M261S, V310R, I386L, S439M
light: B1 light
notes: Printed '1377L' read as I377L; IgG1a constant domain with MALA mutations (M234A, L244A as printed); variable domains from WO 2023/97275; also called S428M, 1377L
- Kd: 76.2 nM
- koff: 0.0751 s⁻¹
- kon: 981000 M⁻¹ s⁻¹

B33: IgG with feline IgG1a Fc variant S428M, I377Y (antibody)
heavy: B1 heavy with M261S, V310R, I386Y, S439M
light: B1 light
notes: Printed '1377Y' read as I377Y; IgG1a constant domain with MALA mutations (M234A, L244A as printed); variable domains from WO 2023/97275; also called S428M, 1377Y
- Kd: 70.8 nM
- koff: 0.0636 s⁻¹
- kon: 900000 M⁻¹ s⁻¹

B34: IgG with feline IgG1a Fc variant S428M, L309E (antibody)
heavy: B1 heavy with M261S, V310R, L318E, S439M
light: B1 light
notes: as for B1
- Kd: 45.6 nM
- koff: 0.0413 s⁻¹
- kon: 905000 M⁻¹ s⁻¹

These reach a lower Kd. Values come first.

- Kd: 36.1 nM
- koff: 0.0258 s⁻¹
- kon: 716000 M⁻¹ s⁻¹
B5: IgG with feline IgG1a Fc variant S252Y, I377Y (antibody)
heavy: B1 heavy with M261Y, V310R, I386Y
light: B1 light
notes: Printed '1377Y' read as I377Y; IgG1a constant domain with MALA mutations (M234A, L244A as printed); variable domains from WO 2023/97275; also called S252Y, 1377Y

- Kd: 18.7 nM
- koff: 0.0139 s⁻¹
- kon: 747000 M⁻¹ s⁻¹
B7: IgG with feline IgG1a Fc variant S252Y, L309V (antibody)
heavy: B1 heavy with M261Y, V310R, L318V
light: B1 light
notes: as for B1

- Kd: 33.4 nM
- koff: 0.0333 s⁻¹
- kon: 1e+06 M⁻¹ s⁻¹
B9: IgG with feline IgG1a Fc variant S428L, T286D (antibody)
heavy: B1 heavy with M261S, T295D, V310R, S439L
light: B1 light
notes: as for B1

- Kd: 25 nM
- koff: 0.0296 s⁻¹
- kon: 1.19e+06 M⁻¹ s⁻¹
B15: IgG with feline IgG1a Fc variant S252Y, R392D (antibody)
heavy: B1 heavy with M261Y, V310R, R403D
light: B1 light
notes: as for B1

- Kd: 12.1 nM
- koff: 0.00783 s⁻¹
- kon: 650000 M⁻¹ s⁻¹
B17: IgG with feline IgG1a Fc variant S252Y, T286E (antibody)
heavy: B1 heavy with M261Y, T295E, V310R
light: B1 light
notes: as for B1

- Kd: 15.2 nM
- koff: 0.00955 s⁻¹
- kon: 631000 M⁻¹ s⁻¹
B19: IgG with feline IgG1a Fc variant S252Y, T286D (antibody)
heavy: B1 heavy with M261Y, T295D, V310R
light: B1 light
notes: as for B1

- Kd: 31.3 nM
- koff: 0.0358 s⁻¹
- kon: 1.15e+06 M⁻¹ s⁻¹
B20: IgG with feline IgG1a Fc variant S428M, L309V (antibody)
heavy: B1 heavy with M261S, V310R, L318V, S439M
light: B1 light
notes: as for B1

- Kd: 36.1 nM
- koff: 0.0268 s⁻¹
- kon: 742000 M⁻¹ s⁻¹
B25: IgG with feline IgG1a Fc variant S252Y (antibody)
heavy: B1 heavy with M261Y, V310R
light: B1 light
notes: as for B1

- Kd: 31.5 nM
- koff: 0.0224 s⁻¹
- kon: 712000 M⁻¹ s⁻¹
B29: IgG with feline IgG1a Fc variant S252Y, I377L (antibody)
heavy: B1 heavy with M261Y, V310R, I386L
light: B1 light
notes: Printed '1377L' read as I377L; IgG1a constant domain with MALA mutations (M234A, L244A as printed); variable domains from WO 2023/97275; also called S252Y, 1377L

- Kd: 24.1 nM
- koff: 0.0287 s⁻¹
- kon: 1.19e+06 M⁻¹ s⁻¹
B32: IgG with feline IgG1a Fc variant S252Y, R392E (antibody)
heavy: B1 heavy with M261Y, V310R, R403E
light: B1 light
notes: as for B1
